According to patent publication US7148193B2, “Compounds that bind to growth hormone receptor” (Antyra, Inc., priority 1997, dated 2006):
Numbering of substitutions follows the chain as printed. “And” between values parts separate entries of the source, which are not always exact repeats. Equal values may be shown once. Read-outs that look alike come from different tables or passages of the source. Each block holds one molecule with its values, some of them ahead of it.

What was measured:
[1] = target: T1, rGHBP (Rattus norvegicus, UniProt P16310); assay: Time-resolved fluorometric detection (TRFD) of specific bLigand binding to rGHBP and its competition; conditions: for IC50: competitor added 1 hr before bLigand
T1 construct: 1–48 of GHBP; The 3′ oligo used for this reaction encoded the mutation L43R (CTG→AGA); The second PCR reaction amplified the DNA encoding amino acids 38–260; 6xHis; made in house
T1 sequence (P16310 19-278 isoform P16310-2): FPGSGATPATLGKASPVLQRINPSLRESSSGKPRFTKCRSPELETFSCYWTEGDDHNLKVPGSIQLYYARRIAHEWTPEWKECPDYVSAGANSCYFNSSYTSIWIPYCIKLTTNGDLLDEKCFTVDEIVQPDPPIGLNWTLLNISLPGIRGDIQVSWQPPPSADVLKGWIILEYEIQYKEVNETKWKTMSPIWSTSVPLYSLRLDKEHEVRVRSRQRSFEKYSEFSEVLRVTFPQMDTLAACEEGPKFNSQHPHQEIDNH
Protocol: For this invention, saEu forms a ternary complex with bP and rGHBP (i.e., the rGHBP:bP:saEu complex). As described herein, the TRFD assay is performed using biotinylated GH (bGH) as bLigand. Biotinylated H5-mutant peptides bP#447 (SEQ ID NO:11) and bP#418 (SEQ ID NO:12) are also used as bLigand (see below). The TRFD assay described herein faithfully reports the competition of ligand binding to the active site of rGHR. To perform the TRFD assays, soluble rGHBP is attached to the surface of microtiter wells, then incubated with bP. Unbound bP is than washed away and (sa)Eu is added to complex with receptor bound bP. The rGHBP:bP bound (sa)Eu is then converted into its highly fluorescent state and detected by TRFD.
Wells were coated with rGHBP(100 ng/well) overnight as described. ED50 and IC50 were calculated from analysis of specific bLigand binding to rGHBP. Competitors were added 1 hr prior to addition of bLigand as described.
rGHBP (50–200 μg/ml in 50 mM NaHCO3) was coated onto low-fluorescence MaxiSorp (Nunc) plates (100 μl/well) overnight at 4° C. The plates were blocked with PBS containing 2% non-fat milk and 0.05% BSA for 2 hr at room temperature, followed by three PBS washes. For competitions, serial dilutions of unlabelled growth hormone (0.1 nM-100 nM) or MAb 2C3 (0.67–67 nM) were added to the plates (100 μl/well) and incubated at room temperature for 1–2 hr. Biotinylated peptide or biotinylated GH (10× concentrations) were incubated in blocking buffer for 30 min to decrease non-specific binding. Ten microliters of the 10× concentrated material was added to the plates and incubated at room temperature for 1 hr to overnight.
The plates were then washed five times with Tris-buffered saline (pH 7.5) containing 0.1% Tween-20 (TTBS). To each well, 100 μl of europium-labeled streptavidin in DELFIA assay buffer (100 mM Tris-HCl, pH 7.8; 150 mM NaCl; 0.5% BSA; 0.05% bovine Ig; 0.05% NaN3; 0.01% Tween-20) was added and incubated for 1.5 hr at room temperature. The plates were then washed five times with TTBS and tapped dry. Subsequently, 100 μl of DELFIA enhancement solution (100 mM acetone-potassium hydrogen phthalate, pH 3.2; 15 mM 2-naphtyltrifluoroacetate; […] tri(n-octyl)-phosphine oxide; 0.1% Triton X-100) was added to each well, and the plates were shaken for 10 min at room temperature. Fluorescence of each sample well was measured at 615 nm using a DELFIA 1234 fluorometer (EG&G Wallac). General procedure and references as described by Wallac are available in “Lanthanide labeling for time-resolved fluorometry”: Wallac publication 1244–1126-03.

[2] = target: T2, ‘hu’ GHBP (humanized rat GHBP) (Rattus norvegicus, UniProt P16310, L61R); assay: Phage ELISA binding and competition on 'hu' GHBP coated wells; conditions: ELISA signal
T2 construct: 1–48 of GHBP; The 3′ oligo used for this reaction encoded the mutation L43R (CTG→AGA); The second PCR reaction amplified the DNA encoding amino acids 38–260; 6xHis; made in house
T2 sequence (P16310 19-278 isoform P16310-2 L61R): T1 sequence (P16310 19-278 isoform P16310-2) with L43R
Protocol: For analysis of individual clones, colonies were picked and phage prepared as described above. Microtiter wells were coated and blocked as described above. Wells were coated with either rGHBP or a control IgG MAb. Phage resuspended in MPBS were added to duplicate wells (100 μl/well) and incubated at room temperature for 1 hr. The phage solution was then removed, and the wells were washed three times with PBS at room temperature. Anti-M13 antibody conjugated to horseradish peroxidase (Pharmacia Biotech) was diluted 1:3000 in MPBS and added to each well (100 μl/well). Incubation was for another hour at room temperature, followed by PBS washes as described. Color was developed by addition of ABTS solution (100 μl/well; Boehringer). Color development was stopped by adjusting each well to 0.5% SDS. Plates were analyzed at 405 nm using a SpectraMax 340 plate reader (Molecular Devices) and SoftMax Pro software. Data points were averaged after subtraction of appropriate blanks. A clone was considered “positive” if the A405 of the well was >2-fold over background.
Humanized GHBP (‘hu’ GHBP) contained the single amino acid change of rat GHBP amino acids L43 to R43, and was capable of binding human GH, as shown in FIG. 9. Direct immobilization of ‘hu’ GHBP was done as described earlier for panning of the secondary H5 library against rat GHBP and used inputs of ‘hu’ GHBP, prepared as described earlier of 100 μl per well of […] protein. Panning was performed with or without H10 peptide (SEQ ID NO:9; 30 μM) for 4 rounds, and 96 clones were picked.
(§1) Clones were tested for the presence of E-tag and binding to ‘hu’ GHBP, rGHBP, or BSA-coated wells. Those having specific GHBP binding (i.e., at least 2 fold greater binding to the GHBP than BSA) and with an E-tag positive signal were subjected to DNA sequencing. Three different clones were isolated and tested a second time against GHBP plus and minus GH (1 μM) or BSA (1 μM) coated wells as described. In these tests, huGH was used as competitor with ‘hu’ GHBP coated wells and bovineGH was used as a competitor with rat GHBP coated wells. […] The following open reading frame insertion including the DYKD (SEQ ID NO:79) amino terminal tag and up to the C-terminal E-tag was obtained for these clones; and is shown in Table III: […]

[3] = target: T1, rGHBP; assay: Phage ELISA binding and competition on rGHBP coated wells; conditions: ELISA signal
Protocol: For analysis of individual clones, colonies were picked and phage prepared as described above. Microtiter wells were coated and blocked as described above. Wells were coated with either rGHBP or a control IgG MAb. Phage resuspended in MPBS were added to duplicate wells (100 μl/well) and incubated at room temperature for 1 hr. The phage solution was then removed, and the wells were washed three times with PBS at room temperature. Anti-M13 antibody conjugated to horseradish peroxidase (Pharmacia Biotech) was diluted 1:3000 in MPBS and added to each well (100 μl/well). Incubation was for another hour at room temperature, followed by PBS washes as described. Color was developed by addition of ABTS solution (100 μl/well; Boehringer). Color development was stopped by adjusting each well to 0.5% SDS. Plates were analyzed at 405 nm using a SpectraMax 340 plate reader (Molecular Devices) and SoftMax Pro software. Data points were averaged after subtraction of appropriate blanks. A clone was considered “positive” if the A405 of the well was >2-fold over background. […]
These clones were next analyzed for binding to the receptor's active sites (FIG. 2B). Competitions of phage binding were done both with the cognate ligand (i.e., GH) and with a specific target-neutralizing MAb 2C3 (Wang, B. S., et al. Mol. Cellular Endocrinology, vol. 116, p. 223–226, 1996).
as §1

[4] = target: T3, ‘hu’ GHBP (Rattus norvegicus, UniProt P16310, L61R); assay: Species specificity of binding by ELISA and BIAcore, 'hu' GHBP; conditions: in words
T3 construct: 1–48 of GHBP; The 3′ oligo used for this reaction encoded the mutation L43R (CTG→AGA); The second PCR reaction amplified the DNA encoding amino acids 38–260; 6xHis; made in house
T3 sequence (P16310 19-278 isoform P16310-2 L61R): T1 sequence (P16310 19-278 isoform P16310-2) with L43R
Protocol: Wells were coated with either recombinant rGHBP or ‘hu’ GHBP (100 ng/well). Additions of H5 (SEQ ID NO:8) and H10 (SEQ ID NOS:9, 80, and 81) phage (10^10/well) and detection were made as described. […] Streptavidin chips were coated with H5 (SEQ ID NO:8) to 1100 RU as described and rGHBP or ‘hu’ GHBP (500 μg/ml) injected as 30 μl samples.
Growth hormone receptors from different species bind human GH as well as their own GH, however human GHR only binds human or monkey GH. […] The sequence of rGHBP was altered by PCR to create a “humanized” version (‘hu’ GHBP; FIG. 9A). Partially purified ‘hu’GHBP (FIG. 9B) was tested for binding using ELISA and BIAcore analysis. […] This was confirmed by BIAcore analysis (FIG. 10B).
The biotinylated control peptide (SEQ ID NO:10) was immobilized onto one flow cell of a SA-5 (streptavidin coated) sensor chip to a final density of 700 RU. On a second flow cell, either hGH (1100 RU final density), H5WT peptide (SEQ ID NO:8; 1100 RU final density), or bGH (730 RU final density) was immobilized. GHBP (either rat or humanized) was injected at a concentration of 500 μg/ml with a flow rate of 5 μl/min. Background binding to the control surface was subtracted prior to further analysis.

Molecule: 445: H5-mutant peptide SEQ ID NO:13 (DYKDLCQRLGVGWPGWLAGWCA; #445 peptide) [compound 445]
saturation of receptors ([1]; TRFD): could not be saturated
ELISA Competition, ‘hu’GHBP, +BSA ([2]; BSA 1 μM): 0.11
ELISA Competition, ‘hu’GHBP, +hGH ([2]; huGH 1 μM as competitor): 0.12
ELISA Competition, ‘hu’GHBP, none ([2]; no competitor): 0.14
ELISA Competition, rGHBP, +BSA ([3]; BSA 1 μM): 0.44
ELISA Competition, rGHBP, +bGH ([3]; bovine GH 1 μM as competitor): 0.16
ELISA Competition, rGHBP, none ([3]; no competitor): 0.45

Molecule: C[S+](C)[O-] [DMSO]
IC50 vs. bGH ([1]; TRFD, DMSO effect on bGH binding): >>3%
IC50 vs. bP#418 (SEQ ID NO: 12) ([1]; TRFD, DMSO effect on bP#418 binding): >>3%
IC50 vs. bP#447 (SEQ ID NO: 11) ([1]; TRFD, DMSO effect on bP#447 binding): >>3%
DMSO IC50 ([1]; specific binding of bGH (3 nM), bP#447 (0.3 μM) and bP#418 (0.3 μM), 0 to 20% DMSO): > 15 % (v/v)

B1: GH: non-biotinylated growth hormone, the cognate ligand of GHBP (protein, UniProt P01244 27-216, looked up)
Somatotropin: FPAMPLSSLFANAVLRAQHLHQLAADTYKEFERAYIPEGQRYSIQNAQAAFCFSETIPAPTGKEEAQQRTDMELLRFSLLLIQSWLGPVQFLSRIFTNSLMFGTSDRVYEKLKDLEEGIQALMQELEDGSPRIGQILKQTYDKFDANMRSDDALLKNYGLLSCFKKDLHKAETYLRVMKCRRFAESSCAF
IC50 ([1]; TRFD, competition of bGH (2 nM) binding, read-out: IC50 vs. bGH): 5 nM
IC50 ([1]; TRFD, competition of bP#418 (300 nM) binding, read-out: IC50 vs. bP#418 (SEQ ID NO: 12)): 2 nM
IC50 ([1]; TRFD, competition of bP#447 (300 nM) binding, read-out: IC50 vs. bP#447 (SEQ ID NO: 11)): 0.4 nM

B2: bGH: biotinylated GH used as bLigand in the TRFD assay (protein, UniProt P01244 27-216, looked up)
Somatotropin: B1 Somatotropin
modifications: biotin
notes: biotinylated GH used as bLigand in the TRFD assay
EC50 ([1]; TRFD, wells coated with rGHBP 100 ng/well, read-out: ED50 (half-maximum specific binding)): ~20 nM and 20 nM

Next, values leading:

binding to ‘hu’ GHBP [4]: bound to human GH
Molecule: human GH: human growth hormone

binding to ‘hu’ GHBP [4]: failed to bind
B3: rat GH: rat growth hormone (protein, UniProt P01244 27-216, looked up)
Somatotropin: B1 Somatotropin

binding to ‘hu’ GHBP [4]: failed to bind
B4: bovine GH: bovine growth hormone (protein)
chain: AFPAMSLSGLFANAVLRAQHLHQLAADTFKEFERTYIPEGQRYSIQNTQVAFCFSETIPAPTGKNEAQQKSDLELLRISLLLIQSWLGPLQFLSRVFTNSLVFGTSDRVYEKLKDLEEGILALMRELEDGTPRAGQILKQTYDKFDTNMRSDDALLKNYGLLSCFRKDLHKTETYLRVMKCRRFGEASCAF
